Laboratory results reported in the supplement of paper PMC9112550, “Optimization of the antimicrobial peptide Bac7 by deep mutational scanning” (BMC Biology, 2022).

Test system: Escherichia coli TOP10
Assay: shrunken log2 fold change of peptide-encoding DNA abundance (4.5 h post-induction vs induction); higher = less antimicrobial activity (less host growth inhibition)
Conditions: time post-induction: 4.5 h; library: site-saturation at positions 5, 18, 19, 20
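Further: peptides expressed intracellularly from a pBAD plasmid library in pooled LB shake-flask culture, induced with 0.3% L-arabinose, DNA abundance read by NGS, three biological replicates, DESeq2 with apeglm shrinkage.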

| Sequence | shrunken log2 fold change |
| --- | --- |
| RRIRARPPRLPRPRPRPPKPPRP | 0.689 |
| RRIRHRPPRLPRPRPRPIVVPRP | 0.0062 |
| RRIRWRPPRLPRPRPRPKADPRP | 0.353 |
| RRIRARPPRLPRPRPRPEMEPRP | 1.3 |
| RRIRIRPPRLPRPRPRPMPHPRP | -0.0728 |
| RRIRRRPPRLPRPRPRPGLIPRP | 0.238 |
| RRIRRRPPRLPRPRPRPSCFPRP | -0.0896 |
| RRIRIRPPRLPRPRPRPCDLPRP | -0.011 |
| RRIRSRPPRLPRPRPRPGNKPRP | -0.194 |
| RRIRSRPPRLPRPRPRPRFDPRP | 0.248 |
| RRIRVRPPRLPRPRPRPLSMPRP | -0.0717 |
| RRIRPRPPRLPRPRPRPRTQPRP | 0.223 |
| RRIRQRPPRLPRPRPRPSGPPRP | -0.0826 |
| RRIRRRPPRLPRPRPRPEARPRP | 0.172 |
| RRIRSRPPRLPRPRPRPKPMPRP | 0.2 |
| RRIRTRPPRLPRPRPRPAISPRP | 0.09 |
| RRIRRRPPRLPRPRPRPQFWPRP | 0.172 |
| RRIRNRPPRLPRPRPRPIKLPRP | -0.0869 |
| RRIRERPPRLPRPRPRPQTSPRP | -0.37 |
| RRIRARPPRLPRPRPRPFKGPRP | -0.104 |
| RRIRFRPPRLPRPRPRPMNHPRP | -0.327 |
| RRIRVRPPRLPRPRPRPGASPRP | 0.583 |
| RRIRHRPPRLPRPRPRPCFDPRP | -0.00612 |
| RRIRARPPRLPRPRPRPHQYPRP | -0.278 |
| RRIRRRPPRLPRPRPRPANRPRP | -0.0151 |

| Sequence | shrunken log2 fold change |
| --- | --- |
| RRIRMRPPRLPRPRPRPLCYPRP | -0.0697 |
| RRIRRRPPRLPRPRPRPCHIPRP | -0.309 |
| RRIRIRPPRLPRPRPRPSTEPRP | -0.388 |
| RRIRDRPPRLPRPRPRPSLNPRP | 0.138 |
| RRIRVRPPRLPRPRPRPQLGPRP | -0.0234 |
| RRIRWRPPRLPRPRPRPFQLPRP | -0.316 |
| RRIRSRPPRLPRPRPRPKCIPRP | -0.256 |
| RRIRARPPRLPRPRPRPRIEPRP | 0.309 |
| RRIRGRPPRLPRPRPRPNDPPRP | -0.0529 |
| RRIRKRPPRLPRPRPRPNLQPRP | 0.279 |
| RRIRRRPPRLPRPRPRPGDLPRP | 1.58 |
| RRIRIRPPRLPRPRPRPKYQPRP | -0.615 |
| RRIRLRPPRLPRPRPRPPIWPRP | 0.0261 |
| RRIRKRPPRLPRPRPRPTDMPRP | -0.124 |
| RRIRQRPPRLPRPRPRPYAPPRP | -0.505 |
| RRIRFRPPRLPRPRPRPMTEPRP | -0.0907 |
| RRIRERPPRLPRPRPRPHGWPRP | 0.136 |
| RRIRMRPPRLPRPRPRPQWYPRP | -0.161 |
| RRIRNRPPRLPRPRPRPPDFPRP | 0.272 |
| RRIRERPPRLPRPRPRPPHNPRP | 0.637 |
| RRIRTRPPRLPRPRPRPRSDPRP | 0.0841 |
| RRIRKRPPRLPRPRPRPDDRPRP | 0.0147 |
| RRIRERPPRLPRPRPRPQLAPRP | 0.00697 |
| RRIRYRPPRLPRPRPRPFDSPRP | -0.0136 |
| RRIRTRPPRLPRPRPRPCRYPRP | 0.0413 |

| Sequence | shrunken log2 fold change |
| --- | --- |
| RRIRNRPPRLPRPRPRPRGHPRP | 0.347 |
| RRIRRRPPRLPRPRPRPYTAPRP | -0.447 |
| RRIRLRPPRLPRPRPRPINPPRP | 0.132 |
| RRIRLRPPRLPRPRPRPRLWPRP | 0.399 |
| RRIRGRPPRLPRPRPRPFSLPRP | -0.693 |
| RRIRCRPPRLPRPRPRPQFEPRP | 0.000801 |
| RRIRDRPPRLPRPRPRPPDFPRP | 0.0426 |
| RRIRCRPPRLPRPRPRPWGNPRP | -0.256 |
| RRIRLRPPRLPRPRPRPMEEPRP | 0.156 |
| RRIRWRPPRLPRPRPRPIAMPRP | 0.256 |
| RRIRSRPPRLPRPRPRPQMNPRP | -0.227 |
| RRIRERPPRLPRPRPRPSEKPRP | -0.0759 |
| RRIRCRPPRLPRPRPRPDNGPRP | -0.0856 |
| RRIRQRPPRLPRPRPRPWYCPRP | -1.83 |
| RRIRFRPPRLPRPRPRPSLTPRP | -0.413 |
| RRIRCRPPRLPRPRPRPSWYPRP | -0.675 |
| RRIRGRPPRLPRPRPRPILLPRP | -0.0679 |
| RRIRGRPPRLPRPRPRPYTQPRP | -0.0862 |
| RRIRHRPPRLPRPRPRPHRIPRP | -0.0803 |
| RRIRCRPPRLPRPRPRPNFVPRP | -0.123 |
| RRIRCRPPRLPRPRPRPMDIPRP | 0.00412 |
| RRIRYRPPRLPRPRPRPVWPPRP | 9.23e-05 |
| RRIRFRPPRLPRPRPRPTDWPRP | 0.335 |
| RRIRERPPRLPRPRPRPPSKPRP | -0.197 |
| RRIRVRPPRLPRPRPRPYMSPRP | -0.583 |

| Sequence | shrunken log2 fold change |
| --- | --- |
| RRIRNRPPRLPRPRPRPIAPPRP | 0.0153 |
| RRIRPRPPRLPRPRPRPVPKPRP | 0.34 |
| RRIRSRPPRLPRPRPRPWQRPRP | 0.074 |
| RRIRGRPPRLPRPRPRPIEGPRP | 0.0275 |
| RRIRSRPPRLPRPRPRPSVQPRP | -0.0563 |
| RRIRERPPRLPRPRPRPTASPRP | -0.15 |
| RRIRTRPPRLPRPRPRPTSRPRP | 0.141 |
| RRIRERPPRLPRPRPRPEDLPRP | 0.0648 |
| RRIRDRPPRLPRPRPRPNRGPRP | -0.0177 |
| RRIRPRPPRLPRPRPRPRCTPRP | 0.753 |
| RRIRIRPPRLPRPRPRPLKEPRP | -0.568 |
| RRIRRRPPRLPRPRPRPFFGPRP | 0.159 |
| RRIRSRPPRLPRPRPRPAGHPRP | -0.794 |
| RRIRARPPRLPRPRPRPGNMPRP | -0.0598 |
| RRIRERPPRLPRPRPRPKHAPRP | -0.0907 |
| RRIRERPPRLPRPRPRPFGRPRP | -0.0419 |
| RRIRPRPPRLPRPRPRPKYTPRP | -0.414 |
| RRIRFRPPRLPRPRPRPNVNPRP | -0.375 |
| RRIRARPPRLPRPRPRPFYTPRP | -0.685 |
| RRIRRRPPRLPRPRPRPEYWPRP | 0.0322 |
| RRIRHRPPRLPRPRPRPGRKPRP | 0.00144 |
| RRIRWRPPRLPRPRPRPGEIPRP | 0.889 |
| RRIRPRPPRLPRPRPRPTLCPRP | -0.0815 |
| RRIRRRPPRLPRPRPRPPLKPRP | 0.302 |
| RRIRARPPRLPRPRPRPFRPPRP | 0.153 |

| Sequence | shrunken log2 fold change |
| --- | --- |
| RRIRIRPPRLPRPRPRPGIVPRP | -0.399 |
| RRIRWRPPRLPRPRPRPIHAPRP | 0.0364 |
| RRIRMRPPRLPRPRPRPGDCPRP | 0.548 |
| RRIRGRPPRLPRPRPRPRQKPRP | 1.43 |
| RRIRVRPPRLPRPRPRPFQRPRP | 0.0825 |
| RRIRKRPPRLPRPRPRPYRHPRP | -1.11 |
| RRIRLRPPRLPRPRPRPIMLPRP | -1.12 |
| RRIRKRPPRLPRPRPRPSENPRP | 0.101 |
| RRIRLRPPRLPRPRPRPPDWPRP | 0.427 |
| RRIRLRPPRLPRPRPRPGVHPRP | -0.308 |
| RRIRGRPPRLPRPRPRPCGGPRP | 0.472 |
| RRIRTRPPRLPRPRPRPATVPRP | 0.0426 |
| RRIRFRPPRLPRPRPRPYALPRP | -0.0591 |
| RRIRIRPPRLPRPRPRPQKQPRP | -0.128 |
| RRIRWRPPRLPRPRPRPIPRPRP | 0.0469 |
| RRIRRRPPRLPRPRPRPENIPRP | -0.468 |
| RRIRNRPPRLPRPRPRPRITPRP | 0.0468 |
| RRIRYRPPRLPRPRPRPLTSPRP | -0.853 |
| RRIRWRPPRLPRPRPRPNYNPRP | -0.752 |
| RRIRFRPPRLPRPRPRPVKRPRP | 0.0219 |
| RRIRVRPPRLPRPRPRPTVWPRP | 0.408 |
| RRIRFRPPRLPRPRPRPVHLPRP | -0.0117 |
| RRIRWRPPRLPRPRPRPQDTPRP | -0.0161 |
| RRIRHRPPRLPRPRPRPDQWPRP | -0.108 |
| RRIRERPPRLPRPRPRPMKFPRP | -0.0657 |
